From patent US20110207917A1

Molecular target: SAM-6 Receptor (SAM-6/R) glycoprotein, about 80 kDa Grp78 variant of tumor cells (human) (UniProt P11021)
Experiment: FACS on BXPC-3 cells transfected with Grp78 siRNA

Sequence of SAM-6 Receptor (SAM-6/R) glycoprotein, about 80 kDa Grp78 variant of tumor cells (human) (P11021 18-654, change not shown): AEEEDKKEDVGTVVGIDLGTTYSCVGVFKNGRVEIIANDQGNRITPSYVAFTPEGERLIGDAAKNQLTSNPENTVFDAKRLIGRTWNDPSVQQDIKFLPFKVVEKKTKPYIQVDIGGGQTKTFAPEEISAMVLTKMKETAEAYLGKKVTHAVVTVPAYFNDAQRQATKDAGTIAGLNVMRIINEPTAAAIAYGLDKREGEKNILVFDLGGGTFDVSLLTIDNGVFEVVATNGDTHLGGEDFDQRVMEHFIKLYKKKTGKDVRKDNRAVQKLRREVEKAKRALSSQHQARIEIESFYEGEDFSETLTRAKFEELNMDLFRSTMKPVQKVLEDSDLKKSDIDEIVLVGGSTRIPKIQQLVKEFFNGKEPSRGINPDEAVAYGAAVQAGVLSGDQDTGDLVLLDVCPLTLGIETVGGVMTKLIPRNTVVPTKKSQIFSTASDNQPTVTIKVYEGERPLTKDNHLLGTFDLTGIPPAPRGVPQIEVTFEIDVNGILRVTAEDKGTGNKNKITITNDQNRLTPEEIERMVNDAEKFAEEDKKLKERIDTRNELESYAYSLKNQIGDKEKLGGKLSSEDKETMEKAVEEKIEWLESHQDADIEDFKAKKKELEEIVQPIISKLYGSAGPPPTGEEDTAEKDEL

% reduction of binding after Grp78 siRNA transfection: 76%
Substance: anti-GRP78 antibody clone ET-21 (Sigma)
